The values below come from paper PMC5095703 (Biochemistry, 2016).

As a reminder, the Km is the substrate concentration at which the rate is half of its maximum. A word on the kcat: it is the maximal rate divided by the concentration of active sites. Usually kcat/Km stands for the turnover number divided by the Michaelis constant.

Series [1] deals with FdhC-C-term tag (Acinetobacter nosocomialis, UniProt V5RDR9). Nature of the series: X-ray crystal structure, […] Å. Type of series: binding. The settings on record: ternary complex with dTDP-Fuc3N(R3Hb) (also with dTDP-Qui3N(R3Hb)), pH 5.0.
Series [2] concerns CC(=O)SCCNC(=O)CCNC(=O)[C@H](O)C(C)(C)COP(=O)(O)OP(=O)(O)OC[C@H]1O[C@@H](n2cnc3c(N)ncnc32)[C@H](O)[C@@H]1OP(=O)(O)O. Nature of the series: purified protein. The settings on record: 5 mM dTDP-Fuc3N, 50 mM HEPES pH 7.5, 5 mM DTNB.
Series [3] deals with Cc1cn([C@H]2C[C@H](O)[C@@H](COP(=O)(O)OP(=O)(O)O[C@H]3O[C@H](C)[C@@H](O)[C@H](N)[C@H]3O)O2)c(=O)[nH]c1=O. Nature of the series: purified protein. As to conditions: 1 mM 3-hydroxybutanoyl-CoA, 50 mM HEPES pH 7.5, 5 mM DTNB.
Series [4] relates to Cc1cn([C@H]2C[C@H](O)[C@@H](COP(=O)(O)OP(=O)(O)O[C@H]3O[C@H](C)[C@H](O)[C@H](N)[C@H]3O)O2)c(=O)[nH]c1=O. The series can be described thus: purified protein. As to conditions: 1 mM 3-hydroxybutanoyl-CoA, 50 mM HEPES pH 7.5, 5 mM DTNB.

`CC(C)(COP(=O)(O)OP(=O)(O)OC[C@H]1O[C@@H](n2cnc3c(N)ncnc32)[C@H](O)[C@@H]1OP(=O)(O)O)[C@@H](O)C(=O)NCCC(=O)NCCS` [CoA]: the “X-ray crystal structure, 1.8 Å” value in series [1] was “the observed electron density for the CoA and the dTDP-Fuc3N(R3Hb) ligands”.

FdhC (Acinetobacter nosocomialis): the figures for the Km in series [2], in series [3] and in series [4] were 40 ± 10 µM, 5300 ± 800 µM and 650 ± 70 µM, respectively. Besides, the turnover number (kcat) in series [2] is 0.0034 ± 0.0002 s⁻¹; in series [3], 24.7 ± 1.7 s⁻¹; in series [4], 52.7 ± 2.1 s⁻¹. Further, the kcat/Km in series [2] turned out to be 85 M⁻¹ s⁻¹; in series [3], 4700 M⁻¹ s⁻¹; in series [4], 81000 M⁻¹ s⁻¹.

As to “FdhC-C-term tag (Acinetobacter nosocomialis)”, in series [4], the Km is 1500 ± 200 µM, the kcat was 38.3 ± 1.9 s⁻¹ and the kcat/Km amounted to 26000 M⁻¹ s⁻¹.
